The target of the assay is GST-SpyCatcher fusion protein, immobilised on nanoparticles (Streptococcus pyogenes). Put plainly: dynamic light scattering; GST-SpyCatcher held on 40 nm citrate-capped gold nanoparticles; excess of the second protein, 3 h incubation; increase of Z-average diameter (Δd); 20 °C; 10 mM HEPES pH 7.3, 10 mM NaCl.

NEM-GST-SpyTag: the increase of particle diameter (Δd) came to 3 nm.

These data come from PMC5902510.
